Test results from patent publication US20250092426, “CAS ENDONUCLEASES AND RELATED METHODS” (Flagship Pioneering Innovations VII, LLC, published 2025).

Molecular target: T1, CasEnd-24 (synthetic construct)
T1 chain: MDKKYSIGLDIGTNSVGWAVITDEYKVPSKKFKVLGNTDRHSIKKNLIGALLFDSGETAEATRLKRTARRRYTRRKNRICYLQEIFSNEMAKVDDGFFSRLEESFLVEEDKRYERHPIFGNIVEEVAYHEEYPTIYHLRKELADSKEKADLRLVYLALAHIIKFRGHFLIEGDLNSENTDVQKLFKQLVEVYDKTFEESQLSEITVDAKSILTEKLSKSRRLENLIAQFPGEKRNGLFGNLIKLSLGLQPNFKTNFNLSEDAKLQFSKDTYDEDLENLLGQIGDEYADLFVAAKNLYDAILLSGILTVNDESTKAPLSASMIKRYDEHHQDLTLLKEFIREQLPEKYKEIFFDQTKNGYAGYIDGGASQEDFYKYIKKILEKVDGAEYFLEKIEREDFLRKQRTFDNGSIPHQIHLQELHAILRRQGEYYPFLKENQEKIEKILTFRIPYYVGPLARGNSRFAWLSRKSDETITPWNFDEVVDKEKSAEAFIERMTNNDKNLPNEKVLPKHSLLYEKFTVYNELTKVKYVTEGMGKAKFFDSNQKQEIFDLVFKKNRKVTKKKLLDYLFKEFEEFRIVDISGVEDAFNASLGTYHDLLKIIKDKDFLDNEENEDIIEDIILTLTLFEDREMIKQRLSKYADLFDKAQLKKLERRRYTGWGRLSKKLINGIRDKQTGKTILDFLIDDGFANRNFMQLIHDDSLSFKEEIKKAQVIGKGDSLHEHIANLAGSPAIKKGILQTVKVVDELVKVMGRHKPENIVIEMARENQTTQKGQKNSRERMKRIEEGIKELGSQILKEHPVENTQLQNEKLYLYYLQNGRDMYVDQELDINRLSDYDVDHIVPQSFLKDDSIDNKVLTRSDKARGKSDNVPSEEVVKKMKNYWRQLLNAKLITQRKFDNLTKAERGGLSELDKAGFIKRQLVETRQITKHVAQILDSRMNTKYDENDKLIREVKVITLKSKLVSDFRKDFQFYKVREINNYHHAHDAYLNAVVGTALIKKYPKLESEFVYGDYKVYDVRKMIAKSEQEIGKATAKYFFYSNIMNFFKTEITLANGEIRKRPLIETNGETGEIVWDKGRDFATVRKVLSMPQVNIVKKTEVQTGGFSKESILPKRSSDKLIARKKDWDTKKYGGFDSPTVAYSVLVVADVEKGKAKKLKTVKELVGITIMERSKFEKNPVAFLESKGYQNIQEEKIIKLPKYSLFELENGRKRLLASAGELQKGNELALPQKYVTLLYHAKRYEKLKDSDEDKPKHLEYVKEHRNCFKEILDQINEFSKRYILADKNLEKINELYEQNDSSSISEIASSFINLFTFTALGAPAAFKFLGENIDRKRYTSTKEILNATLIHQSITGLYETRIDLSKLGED
Assay: cell_activity; +++; HEK293T; PAM not stated
In short: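 BFP-to-GFP conversion via reverse transcriptase fusion with each Cas endonuclease plus template RNA: 200 ng of each plasmid nucleofected into 250,000 BFP-expressing HEK293T cells (program DS-150). Percent GFP+ cells by flow cytometry at day 4 measured editing.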

B1: BFP-to-GFP template RNA ; BFP reporter protospacer (ssRNA ; dsDNA)
RNA: GCCGAAGCACUGCACGCCGUGUUUUAGAGCUAGAAAUAGCAAGUUAAAAUAAGGCUAGUCCGUUAUCAACUUGAAAAAGUGGCACCGAGUCGGUGCACCCUGACGUACGGCGUGCAGUGCUU
DNA 1: GCCGAAGCACTGCACGCCGT
DNA 2: ACGGCGTGCAGTGCTTCGGC
For B1, the activity was ≥ 100 % of reference.
